This is an account of results in paper PMC8856988.

Assay [1] deals with Skeletal muscle myosin (rabbit) (rabbit). The assay can be described thus: BLI; SkM immobilised on Octet Red Amine Reactive Second-Generation Biosensor; FXI or PK in solution; 30 mM Hepes, pH 7.4, 0.01% Tween-20, 0.1% PEG, 50 mM NaCl, 30 °C.
Assay [2] has the same target. The assay can be described thus: ELISA; SkM immobilised on microtiter plate; diluted pooled plasma (endogenous FXI) in 30 mM Hepes, pH 7.4, 130 mM NaCl, 2 h, room temperature; bound FXI detected with anti-FXI mAb AHXI-5061, calculated from the curve of purified FXI; apparent.
For assay [3] the target is unchanged. The assay can be described thus: ELISA; SkM (10 μg/ml, sodium bicarbonate pH 9.3) immobilised on microtiter plate, blocked with 0.5% BSA; purified FXI 0–10 nM in 30 mM Hepes, pH 7.4, 130 mM NaCl, 2 h, room temperature; bound FXI detected with anti-FXI mAb AHXI-5061 and HRP-goat antimouse; apparent.

Sequence of Skeletal muscle myosin (rabbit) (rabbit) (Q28641 whole entry, chain 1 of 3): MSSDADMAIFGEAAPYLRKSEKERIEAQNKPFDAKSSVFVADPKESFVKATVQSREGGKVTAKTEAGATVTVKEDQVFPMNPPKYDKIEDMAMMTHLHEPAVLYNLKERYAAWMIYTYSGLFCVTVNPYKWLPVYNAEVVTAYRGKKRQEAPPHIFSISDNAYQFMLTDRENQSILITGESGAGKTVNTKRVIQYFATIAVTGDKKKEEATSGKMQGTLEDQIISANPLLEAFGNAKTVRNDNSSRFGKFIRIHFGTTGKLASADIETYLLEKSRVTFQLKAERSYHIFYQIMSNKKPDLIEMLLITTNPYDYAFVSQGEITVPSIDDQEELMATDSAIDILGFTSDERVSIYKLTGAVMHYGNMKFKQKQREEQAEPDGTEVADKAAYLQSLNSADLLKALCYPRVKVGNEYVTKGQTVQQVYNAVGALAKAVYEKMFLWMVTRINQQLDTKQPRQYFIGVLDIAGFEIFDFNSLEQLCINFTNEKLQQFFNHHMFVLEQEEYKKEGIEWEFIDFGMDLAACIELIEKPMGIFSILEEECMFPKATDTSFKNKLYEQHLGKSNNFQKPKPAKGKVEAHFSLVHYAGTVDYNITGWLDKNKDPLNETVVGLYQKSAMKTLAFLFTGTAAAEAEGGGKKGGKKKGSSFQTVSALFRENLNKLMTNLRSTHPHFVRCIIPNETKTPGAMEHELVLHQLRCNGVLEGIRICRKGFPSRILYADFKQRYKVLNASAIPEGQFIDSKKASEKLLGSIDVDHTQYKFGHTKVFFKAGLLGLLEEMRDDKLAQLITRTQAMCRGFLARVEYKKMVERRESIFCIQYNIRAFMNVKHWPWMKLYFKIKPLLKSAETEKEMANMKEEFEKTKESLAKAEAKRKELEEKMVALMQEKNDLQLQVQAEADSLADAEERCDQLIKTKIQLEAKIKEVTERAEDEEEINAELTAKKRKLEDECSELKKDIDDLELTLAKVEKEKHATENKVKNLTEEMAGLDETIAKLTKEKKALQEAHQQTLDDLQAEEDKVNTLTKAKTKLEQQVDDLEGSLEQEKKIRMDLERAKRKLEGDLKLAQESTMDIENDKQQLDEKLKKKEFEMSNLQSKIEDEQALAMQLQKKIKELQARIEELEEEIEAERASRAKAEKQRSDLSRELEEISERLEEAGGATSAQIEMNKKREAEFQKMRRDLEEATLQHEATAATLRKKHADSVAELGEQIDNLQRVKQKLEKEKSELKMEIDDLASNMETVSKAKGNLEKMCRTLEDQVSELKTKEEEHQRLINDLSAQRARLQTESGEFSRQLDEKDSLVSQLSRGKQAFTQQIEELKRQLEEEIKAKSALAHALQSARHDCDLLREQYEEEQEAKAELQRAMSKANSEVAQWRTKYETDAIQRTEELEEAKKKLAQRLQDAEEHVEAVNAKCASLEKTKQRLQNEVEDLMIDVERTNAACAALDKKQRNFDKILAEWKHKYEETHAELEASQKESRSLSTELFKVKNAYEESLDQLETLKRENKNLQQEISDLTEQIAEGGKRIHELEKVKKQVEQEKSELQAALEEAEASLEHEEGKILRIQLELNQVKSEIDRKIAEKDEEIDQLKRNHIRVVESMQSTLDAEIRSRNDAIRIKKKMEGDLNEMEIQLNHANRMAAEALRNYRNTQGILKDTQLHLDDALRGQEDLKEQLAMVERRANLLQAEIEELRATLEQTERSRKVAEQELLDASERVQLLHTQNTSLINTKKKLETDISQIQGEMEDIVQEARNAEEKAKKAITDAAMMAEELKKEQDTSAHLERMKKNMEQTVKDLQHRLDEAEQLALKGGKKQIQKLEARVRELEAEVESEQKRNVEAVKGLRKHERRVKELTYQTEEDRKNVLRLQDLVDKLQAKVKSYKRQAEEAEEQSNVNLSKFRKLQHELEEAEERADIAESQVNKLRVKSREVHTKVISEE
Sequence of Skeletal muscle myosin (rabbit) (rabbit) (P02602 2-192, chain 2 of 3, further chain): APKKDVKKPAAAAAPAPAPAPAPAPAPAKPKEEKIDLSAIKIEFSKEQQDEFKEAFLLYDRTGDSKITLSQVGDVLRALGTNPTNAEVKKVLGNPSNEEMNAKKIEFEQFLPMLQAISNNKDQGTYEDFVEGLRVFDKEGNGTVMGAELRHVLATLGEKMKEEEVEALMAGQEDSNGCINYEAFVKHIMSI
Sequence of Skeletal muscle myosin (rabbit) (rabbit) (P02608 2-170, chain 3 of 3, further chain): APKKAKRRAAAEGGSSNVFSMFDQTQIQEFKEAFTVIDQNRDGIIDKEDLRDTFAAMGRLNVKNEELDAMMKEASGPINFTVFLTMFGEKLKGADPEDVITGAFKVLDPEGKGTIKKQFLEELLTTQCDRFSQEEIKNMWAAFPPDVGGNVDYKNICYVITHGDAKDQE

Turning to Coagulation factor XI (natural protein), the Kd in assay [1] was 0.2 nM; in assay [2], 0.7 nM; in assay [3] it was 1.7 nM. The substance further gave a koff in assay [1] of 0.000795 s⁻¹. For the same substance, the kon in assay [1] was found to be 3.87e+06 M⁻¹ s⁻¹.

By koff is commonly meant the first-order rate constant of dissociation. Read a high koff as a short-lived complex. A word on the kon: it is the second-order rate constant of association.
